{"source": "paper PMC9700037", "binders": {"B1": {"name": "His6-tev-DPP9, Q86TI2 1-863 (protein)", "chain": "MATTGTPTADRGDAAATDDPAARFQVQKHSWDGLRSIIHGSRKYSGLIVNKAPHDFQFVQKTDESGPHSHRLYYLGMPYGSRENSLLYSEIPKKVRKEALLLLSWKQMLDHFQATPHHGVYSREEELLRERKRLGVFGITSYDFHSESGLFLFQASNSLFHCRDGGKNGFMVSPMKPLEIKTQCSGPRMDPKICPADPAFFSFINNSDLWVANIETGEERRLTFCHQGLSNVLDDPKSAGVATFVIQEEFDRFTGYWWCPTASWEGSEGLKTLRILYEEVDESEVEVIHVPSPALEERKTDSYRYPRTGSKNPKIALKLAEFQTDSQGKIVSTQEKELVQPFSSLFPKVEYIARAGWTRDGKYAWAMFLDRPQQWLQLVLLPPALFIPSTENEEQRLASARAVPRNVQPYVVYEEVTNVWINVHDIFYPFPQSEGEDELCFLRANECKTGFCHLYKVTAVLKSQGYDWSEPFSPGEDEFKCPIKEEIALTSGEWEVLARHGSKIWVNEETKLVYFQGTKDTPLEHHLYVVSYEAAGEIVRLTTPGFSHSCSMSQNFDMFVSHYSSVSTPPCVHVYKLSGPDDDPLHKQPRFWASMMEAASCPPDYVPPEIFHFHTRSDVRLYGMIYKPHALQPGKKHPTVLFVYGGPQVQLVNNSFKGIKYLRLNTLASLGYAVVVIDGRGSCQRGLRFEGALKNQMGQVEIEDQVEGLQFVAEKYGFIDLSRVAIHGWSYGGFLSLMGLIHKPQVFKVAIAGAPVTVWMAYDTGYTERYMDVPENNQHGYEAGSVALHVEKLPNEPNRLLILHGFLDENVHFFHTNFLVSQLIRAGKPYQLQIYPNERHSIRCPESGEHYEVTLLHFLQEYL"}}, "key": {"[1]": {"molecular_target": "T1, biotin-MBP-NLRP1 wt (Avi-MBP-tev-NLRP1) (human), Q9C000", "T1 chain": "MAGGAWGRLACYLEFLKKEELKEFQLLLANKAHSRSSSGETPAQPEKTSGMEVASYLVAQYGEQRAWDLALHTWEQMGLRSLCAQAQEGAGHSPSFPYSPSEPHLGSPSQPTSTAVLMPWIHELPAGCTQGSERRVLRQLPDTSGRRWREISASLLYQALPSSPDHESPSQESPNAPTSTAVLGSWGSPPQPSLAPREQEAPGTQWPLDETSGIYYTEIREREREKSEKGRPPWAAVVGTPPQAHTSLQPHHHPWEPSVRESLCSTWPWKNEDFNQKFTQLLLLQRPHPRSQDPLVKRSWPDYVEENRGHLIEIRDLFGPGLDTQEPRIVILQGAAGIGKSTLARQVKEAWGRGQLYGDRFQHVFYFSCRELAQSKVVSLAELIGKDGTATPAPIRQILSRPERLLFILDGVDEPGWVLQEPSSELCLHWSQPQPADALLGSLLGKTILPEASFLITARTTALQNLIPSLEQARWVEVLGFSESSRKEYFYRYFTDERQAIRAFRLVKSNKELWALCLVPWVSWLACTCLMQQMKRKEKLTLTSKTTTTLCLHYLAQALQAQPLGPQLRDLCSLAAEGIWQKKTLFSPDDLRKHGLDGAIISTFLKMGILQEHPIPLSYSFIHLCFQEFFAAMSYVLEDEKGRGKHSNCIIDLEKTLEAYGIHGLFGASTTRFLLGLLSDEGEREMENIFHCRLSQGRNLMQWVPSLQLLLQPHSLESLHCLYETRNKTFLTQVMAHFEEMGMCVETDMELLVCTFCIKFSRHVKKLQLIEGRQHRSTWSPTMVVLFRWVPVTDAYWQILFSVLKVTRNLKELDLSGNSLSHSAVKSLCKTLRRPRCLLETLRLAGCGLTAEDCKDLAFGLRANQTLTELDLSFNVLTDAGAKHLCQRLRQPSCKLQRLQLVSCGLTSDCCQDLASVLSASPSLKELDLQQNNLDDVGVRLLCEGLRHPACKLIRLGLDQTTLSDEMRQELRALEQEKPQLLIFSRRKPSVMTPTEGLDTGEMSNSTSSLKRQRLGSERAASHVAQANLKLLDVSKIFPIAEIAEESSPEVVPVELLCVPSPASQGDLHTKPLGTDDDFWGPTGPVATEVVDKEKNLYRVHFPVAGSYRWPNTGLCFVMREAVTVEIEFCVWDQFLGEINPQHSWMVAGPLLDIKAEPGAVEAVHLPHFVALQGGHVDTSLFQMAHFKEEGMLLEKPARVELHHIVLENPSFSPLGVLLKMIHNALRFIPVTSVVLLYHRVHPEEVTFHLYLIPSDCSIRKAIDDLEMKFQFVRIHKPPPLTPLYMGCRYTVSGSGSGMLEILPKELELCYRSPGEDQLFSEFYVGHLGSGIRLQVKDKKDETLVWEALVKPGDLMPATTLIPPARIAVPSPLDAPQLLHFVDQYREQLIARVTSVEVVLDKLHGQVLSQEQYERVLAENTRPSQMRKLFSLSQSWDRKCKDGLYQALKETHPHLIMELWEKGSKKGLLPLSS", "experiment": "SPR; NLRP1 void (high MW) fraction", "conditions": "enzyme; chains chain; biotin (on the Avi tag, BirA co-expressed); remark: other sources report otherwise"}, "[2]": {"molecular_target": "T1, biotin-MBP-NLRP1 wt (Avi-MBP-tev-NLRP1) …", "experiment": "SPR; 20-fold excess Val-boroPro (VbP); NLRP1 multimer", "conditions": "enzyme; chains chain; biotin (on the Avi tag, BirA co-expressed); remark: other sources report otherwise"}, "His6-tev-DPP9, Q86TI2 [3]": {"molecular_target": "His6-tev-DPP9, Q86TI2", "experiment": "SEC-MALS; co-eluting SEC fractions of FIIND, DPP9 and free UPA co-expressed in Sf9 and co-purified; 0.5-1.0 mg/ml, Superose 6 increase (10/300) GL, buffer A without glycerol", "conditions": "remark: other sources report otherwise"}, "His6-tev-DPP9, Q86TI2 [4]": {"molecular_target": "His6-tev-DPP9, Q86TI2", "experiment": "SEC-MALS; co-eluting SEC fractions of FIIND and DPP9 co-expressed in Sf9 WITHOUT the free UPA construct, co-purified; 0.5-1.0 mg/ml, Superose 6 increase (10/300) GL, buffer A without glycerol", "conditions": "remark: other sources report otherwise"}, "[5]": {"molecular_target": "T2, Biotin-FLAG-NLRP1 wt (human), Q9C000", "T2 chain": "T1 chain", "experiment": "SPR; Biotin-FLAG-NLRP1 (from HEK293T) or biotin-MBP-NLRP1 (from Sf9, multimer fraction) or biotin-MBP immobilised on a streptavidin chip; DPP9 injected at 78-2500 nM, single-cycle kinetics, 10 mM Hepes pH 7.5, 150 mM NaCl, 0.5 mM TCEP, 0.05% Tween-20", "conditions": "remark: other sources report otherwise"}, "[6]": {"molecular_target": "T1, biotin-MBP-NLRP1 wt (Avi-MBP-tev-NLRP1) …", "experiment": "SPR; Biotin-FLAG-NLRP1 (from HEK293T) or biotin-MBP-NLRP1 (from Sf9, multimer fraction) or biotin-MBP immobilised on a streptavidin chip; DPP9 injected at 78-2500 nM, single-cycle kinetics, 10 mM Hepes pH 7.5, 150 mM NaCl, 0.5 mM TCEP, 0.05% Tween-20", "conditions": "remark: other sources report otherwise"}}, "data": [{"binder": "B1", "values": [{"measurement": "Kd", "setting": "[1]", "result": 173, "unit": "nM"}, {"measurement": "Kd", "setting": "[2]", "result": 168, "unit": "nM"}, {"measurement": "stoichiometry N", "setting": "His6-tev-DPP9, Q86TI2 [3]", "result": 2}, {"measurement": "stoichiometry N", "setting": "His6-tev-DPP9, Q86TI2 [4]", "result": 2}, {"measurement": "Kd", "setting": "[5]", "result": 155, "unit": "nM"}, {"measurement": "Kd", "setting": "[6]", "result": 140, "unit": "nM"}]}]}
